Measurements taken from paper PMC3817407.

T1: ECF01_3473
T1 chain: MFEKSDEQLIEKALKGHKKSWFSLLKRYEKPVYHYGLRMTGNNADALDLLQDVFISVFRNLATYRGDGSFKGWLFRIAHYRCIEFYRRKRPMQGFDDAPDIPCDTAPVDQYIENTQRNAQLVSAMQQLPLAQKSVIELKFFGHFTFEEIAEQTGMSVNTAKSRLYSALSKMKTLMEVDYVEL

T2: ECF02_2817
T2 chain: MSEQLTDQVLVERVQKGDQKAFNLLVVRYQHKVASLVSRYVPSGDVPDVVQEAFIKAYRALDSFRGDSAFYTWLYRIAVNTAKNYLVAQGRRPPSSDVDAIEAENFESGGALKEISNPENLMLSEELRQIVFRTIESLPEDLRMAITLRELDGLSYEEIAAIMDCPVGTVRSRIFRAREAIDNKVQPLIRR

T3: ECF03_1198
T3 chain: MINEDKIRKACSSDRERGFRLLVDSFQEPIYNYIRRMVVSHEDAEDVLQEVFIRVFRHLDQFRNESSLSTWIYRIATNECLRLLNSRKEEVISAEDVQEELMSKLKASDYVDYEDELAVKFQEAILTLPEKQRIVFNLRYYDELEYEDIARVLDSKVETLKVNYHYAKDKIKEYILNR

T4: ECF11_3726
T4 chain: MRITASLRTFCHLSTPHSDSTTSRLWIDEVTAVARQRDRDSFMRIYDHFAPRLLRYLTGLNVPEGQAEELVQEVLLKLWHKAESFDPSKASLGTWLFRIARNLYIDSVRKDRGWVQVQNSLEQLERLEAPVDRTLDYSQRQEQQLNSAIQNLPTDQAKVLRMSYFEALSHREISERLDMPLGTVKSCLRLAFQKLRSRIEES

T5: ECF14_3200
T5 chain: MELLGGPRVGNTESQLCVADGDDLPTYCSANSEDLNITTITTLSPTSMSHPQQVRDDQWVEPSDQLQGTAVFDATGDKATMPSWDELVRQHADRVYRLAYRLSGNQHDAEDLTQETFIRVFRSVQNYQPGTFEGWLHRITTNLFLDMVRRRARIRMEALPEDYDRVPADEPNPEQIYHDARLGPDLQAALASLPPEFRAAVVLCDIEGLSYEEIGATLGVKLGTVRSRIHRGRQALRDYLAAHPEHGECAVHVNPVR

T6: ECF15_524
T6 chain: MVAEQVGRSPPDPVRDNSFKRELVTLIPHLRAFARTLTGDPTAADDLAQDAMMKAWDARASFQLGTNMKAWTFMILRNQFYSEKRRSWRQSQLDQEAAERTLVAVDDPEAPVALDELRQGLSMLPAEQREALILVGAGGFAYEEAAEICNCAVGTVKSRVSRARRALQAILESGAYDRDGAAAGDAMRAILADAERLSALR

T7: ECF16_3622
T7 chain: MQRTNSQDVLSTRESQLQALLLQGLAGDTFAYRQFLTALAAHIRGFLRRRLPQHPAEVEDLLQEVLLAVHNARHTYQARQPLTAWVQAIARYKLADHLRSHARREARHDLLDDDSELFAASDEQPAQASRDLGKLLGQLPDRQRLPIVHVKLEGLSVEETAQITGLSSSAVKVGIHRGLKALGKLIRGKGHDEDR

T8: ECF16_973
T8 chain: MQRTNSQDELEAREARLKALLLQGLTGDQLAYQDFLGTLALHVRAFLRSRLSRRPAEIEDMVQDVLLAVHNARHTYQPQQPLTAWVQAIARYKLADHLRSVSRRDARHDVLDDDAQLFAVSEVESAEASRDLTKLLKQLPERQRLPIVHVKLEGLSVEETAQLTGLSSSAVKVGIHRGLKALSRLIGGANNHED

T9: ECF25_1645
T9 chain: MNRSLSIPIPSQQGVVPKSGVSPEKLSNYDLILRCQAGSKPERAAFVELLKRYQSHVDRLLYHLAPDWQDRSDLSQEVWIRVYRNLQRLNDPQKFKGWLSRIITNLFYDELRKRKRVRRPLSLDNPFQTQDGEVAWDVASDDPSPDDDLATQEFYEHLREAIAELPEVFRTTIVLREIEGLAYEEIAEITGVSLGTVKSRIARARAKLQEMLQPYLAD

T10: ECF27_4265
T10 chain: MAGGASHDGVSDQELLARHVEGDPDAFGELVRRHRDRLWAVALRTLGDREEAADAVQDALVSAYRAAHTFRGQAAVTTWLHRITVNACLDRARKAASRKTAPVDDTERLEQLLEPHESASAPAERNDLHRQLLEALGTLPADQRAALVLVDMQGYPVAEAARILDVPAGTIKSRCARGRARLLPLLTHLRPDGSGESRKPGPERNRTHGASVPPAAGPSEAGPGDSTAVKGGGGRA

T11: ECF31_34
T11 chain: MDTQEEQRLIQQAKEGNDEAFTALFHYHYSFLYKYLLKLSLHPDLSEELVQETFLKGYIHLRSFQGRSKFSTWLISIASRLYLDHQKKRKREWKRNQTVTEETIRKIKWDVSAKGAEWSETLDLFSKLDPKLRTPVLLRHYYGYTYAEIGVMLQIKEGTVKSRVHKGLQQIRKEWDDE

T12: ECF37_2513
T12 chain: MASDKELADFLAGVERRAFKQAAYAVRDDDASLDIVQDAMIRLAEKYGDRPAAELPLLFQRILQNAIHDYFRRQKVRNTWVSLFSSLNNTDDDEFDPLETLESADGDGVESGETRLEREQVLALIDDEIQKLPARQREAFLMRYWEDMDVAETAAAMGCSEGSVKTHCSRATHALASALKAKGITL

T13: ECF38_1322
T13 chain: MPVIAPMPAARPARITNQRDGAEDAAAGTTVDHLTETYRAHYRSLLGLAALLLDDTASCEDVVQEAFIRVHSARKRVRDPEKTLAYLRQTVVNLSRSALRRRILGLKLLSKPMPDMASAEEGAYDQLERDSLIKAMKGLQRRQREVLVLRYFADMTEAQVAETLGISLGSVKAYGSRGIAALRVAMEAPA


Assays:
ECF01_3473 = target: T1, ECF01_3473
ECF02_2817 = target: T2, ECF02_2817
ECF03_1198 = target: T3, ECF03_1198
ECF11_3726 = target: T4, ECF11_3726
ECF14_3200 = target: T5, ECF14_3200
ECF15_524 = target: T6, ECF15_524
ECF16_3622 = target: T7, ECF16_3622
ECF16_973 = target: T8, ECF16_973
ECF25_1645 = target: T9, ECF25_1645
ECF27_4265 = target: T10, ECF27_4265
ECF31_34 = target: T11, ECF31_34
ECF37_2513 = target: T12, ECF37_2513
ECF38_1322 = target: T13, ECF38_1322

Binder | fold repression (ECF01_3473) | fold repression (ECF02_2817) | fold repression (ECF03_1198) | fold repression (ECF11_3726) | fold repression (ECF14_3200) | fold repression (ECF15_524) | fold repression (ECF16_3622) | fold repression (ECF16_973) | fold repression (ECF25_1645) | fold repression (ECF27_1331) | fold repression (ECF27_4265) | fold repression (ECF31_34) | fold repression (ECF37_2513) | fold repression (ECF38_1322)
AS27_4265 (protein) MTGHPDVAEIADLAEGLLPTTRTTEVRQHLESCELCADVYASLTEIQGLLGTLPAPAPMPDDVAARIDAALAAEPPLGIADGTRVSRETSTPADRPAGHARPSSTGPGRKDRRRGGRRRIAVLGAVAAAAAIGIGSVVVSSLTEDSSSGNTAREQQTAIADTFSEGRLKDRVTNLVADGSAENGSRTPRSFGMESENGGETAENHVFKQPTVPECIRKGIGRDDAVIATEPGVYKGREALLVVLPDATNDTQVTAYIVETACVDQPAVGKAKILLEHSYARS | 3.99 | 1.4 | 2.19 | 7.03 | 4.49 | 2.74 | 5.58 | 1.77 | 1.02 | 3.78 | 152 | 1.67 | 2.03 | 1.36
AS33_375 (protein) MMALSKKMLEQEPSEIELLLPWHAAGTLNARDARRVEDALARDPELAKQYAAIRGEYEETIHLNESLGAPSARAMQKLFGAIDAEPARETGSLPLSARIATFFASLSPRTLAWSASLGAVALVLQAGIIGAVLMKTQPTTFQTASLSTSAPITRELGAAVAPARALVRFTPEARVADITALLDSYQASIIGDAKGGMFRLQFDKAMSQDELASLLGRMQREKFVNLAVAAP | 5.29 | 5.75 | 21.3 | 34.4 | 17.8 | 14.3 | 22.6 | 9.87 | 5.35 | 11.4 | 5.34 | 9.28 | 13.5 | 7.66
AS30_35 (protein) MDKRLQQLREEYKNVQIPKELDIIVEKALQQEPKKKRIVMWPTSAAIAAAILFTALVNINPDAAQAMSKIPVIGKIVKAITFIEIKEEKDQSSIDVKTPALSGLSNKELENSINEKYLKESQQLYKEFIQSTSKNKKGHLSIYSDYETVTDTPDLLSIRRNIETTQASSYTQSRYITIDKKNDILLTLKSLFKDERYIKVISQNIKEQMKQQMKEDPNKIYWLTDEDAEPFKTILPDQTFYITEDHKLVISFDEYEVAPGYMGVTEFTIPTGVISNLLVGERYIR | 1.65 | 1.56 | 1.96 | 2.09 | 1.91 | 1.74 | 1.39 | 1.73 | 1.69 | 2.39 | 1.44 | 2.22 | 2.3 | 1.84
AS31_34 (protein) MNKEKLSDHLKSEWKKIDQTANPSIPNQKELLHQLSQMKAEYRKKLLQEIILFVFCALMVVSAAILAFTQAPAVFIVLQVCVLAVLPILIAAEKKRHLGECEVKRG | 1.76 | 1.79 | 2.96 | 5.86 | 2.7 | 2.19 | 3.01 | 1.84 | 1.99 | 2.57 | 1.48 | 22.7 | 3.38 | 2.06
